Measurements taken from the DeepSol protein solubility set.

Experiment: soluble on expression in E. coli; label from the status in PepcDB or PDB records

Row | Sequence | soluble on expression in E. coli
1 | MGSDKIHHHHHHKDSNKWKMTGDVSVQDDIMTLKGTDALAVLKNGKYKNFDLTLDLRTTPGGKGAVWFHTDPTLKKGYRIAINNDRADKVWWKMTGSLVSVRNLTKSFVKEDQWFKMDIRVAGQEIDVNINGEPVVEYIQPTAPYRTDANAYALLSEGTFAIESDGSGEIQIKNITVNVIDESTIDINAQLAEANDEQNDEIIKLHQSDFPVLDYHVHLKGGLTKEVAAKQSRKTGINYTIAPNCGIGFPITNDQQVMDYLNEMRSQPFILGMQAEGREWITTFSPETLKEFDYVFTDALTFKDNKGRRTRLWIPEETWIENEEQYMDMIVDRICSVLEEPVDIYVNPCFLPSPMDKRFDEFWTEARMNRFVEALAKSGKALEINELYNIPNKAIIMKAKAAGVKFTFGSNNVTPNVSDLSYSIRMMKECGLTAEDMYKPKVKI | not soluble
2 | MGSDKIHHHHHHMAILNISELEQVEKFRQLQLTLRDRWKTIESFDNSEADILIIPSLSIDQRELQKIEGCEHYEERLLFSLIRLQNPRTRLIYVTSVPLHPSIIDYYLQLLPGIPFSHARNRLLLLSTYDSSLKPLSQKILERPRLLERIHQSLRLDKSFMICYNSSHWEGELSLKLGVPLYAAAPDLQIWGTKSGSRQIFKGSGVPHPDGSEKIWNHTDLAEATSDLWERQPTLKRVVVKLNEGISGEGNALLDLRPIENLAPGIGTHAQRVAAISDRFSTMRFQAKLETWDNFSGRIPELGAIAEAFVEGEIKRSPSVQGRITPTGEVEILSTHDQILGGPDGQIYLGCRFPADESYRLQLQQLGLQVGRTLAEKGTLERFGVDFIAVDKGNGEWDIQAIEINLRKGGTTHPFMTLKLLTNGRYDLSTGLFYSQQGRPKYYIATDNLQKERYQGLLPNDLMDIIAHHRLHFDSGTETGTVFHLMGCLSQFGKLGLTSIGDSPQQAQDIYNKVVKVLDEETRSENRDFSAFSDYSFPVAWDEYR | not soluble
3 | MKVFEGKPRINSPHITGNYPSTPFIFYIPTSGQRPMQWSAEKLPEGLELDSKTGIISGVMTSKGDYTVTLKAENALGVSVKQLEHHHHHH | not soluble
4 | MSLSGKVGAPTLEVLRTAVSKRWSANSDLIDAIEHVSRQALLELAERAGQVDEVEDQLFRFSRILDVQPRLAILLGDCAVPAEGRVRLLRKVLERADSTVNPVVVALLSHTVELLRGQAVEEAVLFLAEVAVARRGEIVAQVGAAAELSDAQRTRLTEVLSRIYGHPVTVQLHIDAALLGGLSIAVGDEVIDGTLSSRLAAAEARLPDEGHHHHHH | not soluble
5 | MSESSRIREKYPDRIPVIVEKAGQSDVPDIDKKKYLVPADLTVGQFVYVVRKRIKLGAEKAIFVFVKNTLPPTAALMSAIYEEHKDEDGFLYMTYSGENTFGSLTVA | soluble
6 | MDADASTITPEELDFIRQRALRRFDSIVPTAGREGTEIASDIFKGRTLAIYTSGGDSQGMNSAVRSITRMAIYCGCKVYLIYEGYEGMIEGGDFIKEATWNTVSDIIQQGGTIIGSARSSEFRTREGRLKAATNLINRGIGRLVCIGGDGSLTGANTFRLEWTDLVQELVKNQRVTAAAAKKIPYIQIVGLVGSIDNDFCGTDMTIGTDSALQRIISSIDAVVATAQSHQRAFVIEVMGRHCGYLALVAALASEADFCFIPEWPAPENWRDVLCDKLSQMRSEGQRLNIIIVAEGAIDRDGKAITAEDVKTAVKEKLKYDTRVTILGHVQRGGAPSAFDRLLGCRMGAEAVFALMEMTEESEPCVISIDGNVMVRVPLLKCVERTQMVQKAMADKDWTTAVMLRGRSFQRNLETYKLLTKMRTVEKDNLSEGHKFNVAVINVGAPAGGMNAAVRSYVRMALYHQCTVYGIEDSFEGLANGSFKQFKWSDVTNWAMNGGSFLGTQKSLPTEKTMPQLAAQLKKHNIQALLLVGGFEAYHSTIILAENREKYPEFCIPMCVIPCTISNNVPGTMVSLGSDTAINEICQMIDKIKQSATGTKRRVFIVETMGGYCGYLATLSALSSGADNAYIFEEPFTVQDLSDDVDVILSKMEVGAKRYLVVRNEWADKNLTTDFVQNLFDSEGKKNFTTRVNVLGHVQQGGSPTPFDRNMGTKLAARALEFLLIQLKENLTADNKVIAKSAHTATLLGLKGRKVVFTPVQDLKKETDFEHRLPSEQWWMALRPLLRVLARHRSTVESSAILESVEEESADSHMF | not soluble
7 | GPGSMPAKKKEVKVDEPLFVDEEGSYVHEAEGARYKGGVRRYAPPGGTDAGGTAAPPAKNSRSRSTSSPGKGGATPPPSAAAGAAASMAVVSDAPVFRHGRGVYTCPSFTYAGDWVEDEMHGSGQLTFVESGNIYEGEFSHGCFSGQGTYQWRDGALYCGQWRSNRMHGEGIYTDVQGHVWKGRYYNGTGPGLIRLYPTLERVDDAGPSSPGPDATNAAATVANS | soluble
8 | MTGEGYKQAIVVRRDLGMGRGKAAAQAAHASCEAVFLILESGRPEWRRWLEMWRLQGQAKVVLRVESLAELQEVYSKAVEEGLPASFVRDAGKTQLEPGTPTAAAVGPAPSRLVDRITGGLKLF | not soluble
9 | MIEYSSFVLDNGLKVFVHEDRTTSMAALNILYDVGSKDEVVTKTGFAHLFEHLMFGGSKHIPSYDEALQKAGGENNAFTSPDITNYYITIPANNIETAFWLESDRMMALSFDPKVLEVQRSVVIEEFKQRYLNQPYGDVWLKLRPLAYKEHSYKWATIGKEISHIEEATMDDVRDFFYSYYLPNNAYMVVAGNVTLEQVKKLSEKWFAPIPSGTRRKRNIP | not soluble
10 | MTVDSPILTDTLVVGGGQAGIAMSEHLTGQGVPHIVLERDRIAQRWRTGRWDSLVANGPAWHDRFPGLEFEGLDPDGFASKDAVADYLEAYARKFNAPIRTGVEVVRAERNGGRYGFTVETSAGTYEAQRIVVATGPFQRPVIPAIAPRDPALTQIHSADYRNPGQLPEGAVLVIGAGSSGVQIADELQRAGREVYLSVGPHDRPPRRYRGRDFCWWLGVLGLWDQETVQPGREHVTIAVSGTDGGRTIEFRALAHQGITLVGVTKSFRDGVVAFENDLAENVARGDANHFALLDAADAYIARNGLSLPDEPQARRVPPDPACMTEPILQLDLAAANVTSIIWATGYAAEYGWLNVDAFDANGKPRHQRGVSSEPGVYFLGLPWLSRRGSAFLWGVWHDAKHIAGHIAMQRNYLSYPDFGQSQQLEHHHHHH | soluble
11 | MTENQNGKVDPVAIRELISQGIPMKRKESEIKRSQSEEQCVESECPNDEPMSKDFSRVSRRERRKSDKGDYESLFICRNTLKNRKTIYIAKELQDTLAEIVMSMRNRDMTIGIYVENIILHHLETYKDEINRLAEMKFRKLL | not soluble
12 | MGSDKIHHHHHHMTMDKLLTVCGLSLEVARTGQQVVKSVSFDLAPGEIFGIVGESGSGKTLATRALISLLPPTIKVADGSVSYKGRDVLKMKENELRHLRGAEIGVVFQEPMTSLNPSMTIGRQLEEGLILHTKASAQERRSLILDMLKRVGIRDPEGALSSYPHEFSGGMRQRIMLASVMLLKPALLIADEPTTALDAVIQRDVMELMVELTRAEGTAILLISHDLPMVARYTSRIVVMEKGAIVEKGRTEDLLKAPQHPYTKKLLSSLPFRGRPRQIDLTSVPMISARDIIVDYAGRKSLFRKNKPKRALHGVSIDIHEGEVVALVGGSGSGKTTLGRTIAGLVTESEGRIQFQGRPRTENWTDYRLNCQMVFQDPYSSLDPRMTIEALVEEALRPVPGLDGKAKRKRTLETLEEVGLGVDYAGRYPHELSGGQRQRVAIARAIARRPRFLIADEPVSALDVTVRAQVLDLFSDLQKRYGFSCLFISHDLGVVEQVADRVVVMQDGRIIEEGDRDTIFDSPKEAYTRRLLSAIPALDQNEKGGVTLKWRLEN | not soluble
13 | MGSDKIHHHHHHMVQTVYKNSDQTVFEDAKALFQLNKNILLKGPTGSGKTKLAETLSNVMKLPMHQVNCSVDLDTESLLGFKTIHTNEEGHQEIVFIDGPVIKAMKEGHILYIDEINMAKPETLPILNGVLDYRRQLTNPYTGEVIKAAPGFNVIAAINEGYVGTLPMNEALKNRFIVIEVDYIDGDILKTVIKEQSKLQDEQLIQHIVKFNEDLRTMTKQGQISEEAASIRALIDLSDLATVMPIERAVQRTIIDKLEDEREQQAILNAIELNF | not soluble
